Assay results published in the supplement of paper PMC11316812.
± gives the standard deviation of the averaged measurements.

Assays:
[1] = tested on: MCF7; experiment: percentage of EdU-negative (G0-arrested) nuclei per well, 72 h; higher = more G0 arrest; settings: reference: sequence is the full UniProt precursor, the tested protein was the secreted form or ectodomain
[2] = tested on: hTERT-HMEC; experiment: as above; settings: reference: sequence is the full UniProt precursor, the tested protein was the secreted form or ectodomain
[3] = protein concentration 0.01025 µM
[4] = protein concentration 0.1025 µM
[5] = protein concentration 0.0225 µM
[6] = protein concentration 0.0220325 µM
[7] = protein concentration 0.220325 µM
[8] = protein concentration 0.00839 µM
[9] = protein concentration 0.0839 µM
[10] = protein concentration 0.03125 µM
[11] = protein concentration 0.3125 µM
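Further: secreted proteins added to cultured cells, EdU pulse at the end, nuclei found by Hoechst imaging, EdU status from nuclear versus surrounding ring intensity ratio, PBS as neutral control.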

MAGGRETCLPLIGFILICLKMVASAKSAPEIPTIDQAYSKLSNSITVEWATVPGATSYLLTAEDGDTVIETTVANSPGTVTGLKAATWYEITIRSISAAGRSQASPPKQAKTVLAAPILEVSSPSSDSILVQWEAVYMAIAFSVSIMRANGLGSIWKENTTNTSLTFTSLEAGTLYTIKAYAWNANRIPGDDSTCNQRTSPRAPANIQVSFDSGALKASFSWARAEGAFNYTVMALSDSSELTCSTTFSSCTISSLQCGTEYLISVLASNDAGSSKSSSAMTLKTVACAPGRVTIQEDPPGHLSVAWSSVDLGDYYVVFVKSDDGLEVHCNTSLTQCNFLSECGFTYFISVFVYNKAGQSPLGDIFNYTTAPCCPSDINPVLVSSDRVEIVWSPVRGAELYETKAVDGYNMVECNDTTPACTLSALECDTKYNITVYSFNEVRGSNMSCTPQFITTAPCSPEIKNVSRDAFSMINVHWRSTNDDATYTVTAQGEKGLYQCSSTGESCTMRGLPCGSVFSVTAVAETQAGRSLPSYSVPLETVPCCPTGLTVTQITQSVINVSWTIGRVAQTHVAVLESHTGQSKCHTHQNHCLLGCITCGINYTVTLKAISATGLTADCSYQSYFSGACCPLGVKLYRLGPNGIRIYWQASRGSANYSTDLYGSKGIFTCTPSAGLSFCDVTEIPCGDVYTVMVSPVAKTGLKLTFCPKKIYSVTCSGSTLGMVIYRGKRNEE [Q5VTL7]
percentage of EdU-negative [1, 3]: 25.3 ± 0.94%
percentage of EdU-negative [1, 4]: 35.5 ± 1%
percentage of EdU-negative [2, 3]: 4.97 ± 0.23%
percentage of EdU-negative [2, 4]: 35.6 ± 3.5%

MAGGRHRRVVGTLHLLLLVAALPWASRGVSPSASAWPEEKNYHQPAILNSSALRQIAEGTSISEMWQNDLQPLLIERYPGSPGSYAARQHIMQRIQRLQADWVLEIDTFLSQTPYGYRSFSNIISTLNPTAKRHLVLACHYDSKYFSHWNNRVFVGATDSAVPCAMMLELARALDKKLLSLKTVSDSKPDLSLQLIFFDGEEAFLHWSPQDSLYGSRHLAAKMASTPHPPGARGTSQLHGMDLLVLLDLIGAPNPTFPNFFPNSARWFERLQAIEHELHELGLLKDHSLEGRYFQNYSYGGVIQDDHIPFLRRGVPVLHLIPSPFPEVWHTMDDNEENLDESTIDNLNKILQVFVLEYLHL
percentage of EdU-negative [1, 5]: 25.8 ± 0.78%
percentage of EdU-negative ([1]; protein concentration 0.225 µM): 29.91 ± 0.092%
percentage of EdU-negative [2, 5]: 5.21 ± 0.26%
percentage of EdU-negative ([2]; protein concentration 0.225 µM): 4.97 ± 1.1%

MAGLMTIVTSLLFLGVCAHHIIPTGSVVIPSPCCMFFVSKRIPENRVVSYQLSSRSTCLKAGVIFTTKKGQQFCGDPKQEWVQRYMKNLDAKQKKASPRARAVAVKGPVQRYPGNQTTC
percentage of EdU-negative [1, 6]: 23.9 ± 1.6%
percentage of EdU-negative [1, 7]: 24.7 ± 0.47%
percentage of EdU-negative [2, 6]: 4.96 ± 0.78%
percentage of EdU-negative [2, 7]: 5.694 ± 0.035%

MAGLTAAAPRPGVLLLLLSILHPSRPGGVPGAIPGGVPGGVFYPGAGLGALGGGALGPGGKPLKPVPGGLAGAGLGAGLGAFPAVTFPGALVPGGVADAAAAYKAAKAGAGLGGVPGVGGLGVSAGAVVPQPGAGVKPGKVPGVGLPGVYPGGVLPGARFPGVGVLPGVPTGAGVKPKAPGVGGAFAGIPGVGPFGGPQPGVPLGYPIKAPKLPGGYGLPYTTGKLPYGYGPGGVAGAAGKAGYPTGTGVGPQAAAAAAAKAAAKFGAGAAGVLPGVGGAGVPGVPGAIPGIGGIAGVGTPAAAAAAAAAAKAAKYGAAAGLVPGGPGFGPGVVGVPGAGVPGVGVPGAGIPVVPGAGIPGAAVPGVVSPEAAAKAAAKAAKYGARPGVGVGGIPTYGVGAGGFPGFGVGVGGIPGVAGVPGVGGVPGVGGVPGVGISPEAQAAAAAKAAKYGAAGAGVLGGLVPGAPGAVPGVPGTGGVPGVGTPAAAAAKAAAKAAQFGLVPGVGVAPGVGVAPGVGVAPGVGLAPGVGVAPGVGVAPGVGVAPGIGPGGVAAAAKSAAKVAAKAQLRAAAGLGAGIPGLGVGVGVPGLGVGAGVPGLGVGAGVPGFGAGADEGVRRSLSPELREGDPSSSQHLPSTPSSPRVPGALAAAKAAKYGAAVPGVLGGLGALGGVGIPGGVVGAGPAAAAAAAKAAAKAAQFGLVGAAGLGGLGVGGLGVPGVGGLGGIPPAAAAKAAKYGAAGLGGVLGGAGQFPLGGVAARPGFGLSPIFPGGACLGKACGRKRK [F8WAH6]
percentage of EdU-negative [1, 8]: 26.3 ± 0.31%
percentage of EdU-negative [1, 9]: 25.1 ± 0.57%
percentage of EdU-negative [2, 8]: 4.54 ± 0.69%
percentage of EdU-negative [2, 9]: 6.95 ± 0.57%

MAGPATQSPMKLMALQLLLWHSALWTVQEATPLGPASSLPQSFLLKCLEQVRKIQGDGAALQEKLVSECATYKLCHPEELVLLGHSLGIPWAPLSSCPSQALQLAGCLSQLHSGLFLYQGLLQALEGISPELGPTLDTLQLDVADFATTIWQQMEELGMAPALQPTQGAMPAFASAFQRRAGGVLVASHLQSFLEVSYRVLRHLAQP
percentage of EdU-negative [1, 10]: 25 ± 0.82%
percentage of EdU-negative [1, 11]: 27.5 ± 0.74%
percentage of EdU-negative [2, 10]: 5.19 ± 0.94%
percentage of EdU-negative [2, 11]: 9.86 ± 1.2%

MAGPLRAPLLLLAILAVALAVSPAAGSSPGKPPRLVGGPMDASVEEEGVRRALDFAVGEYNKASNDMYHSRALQVVRARKQIVAGVNYFLDVELGRTTCTKTQPNLDNCPFHDQPHLKRKAFCSFQIYAVPWQGTMTLSKSTCQDA
percentage of EdU-negative [1, 10]: 26.2 ± 1.3%
percentage of EdU-negative [1, 11]: 26.6 ± 2.9%
percentage of EdU-negative [2, 10]: 5.05 ± 0.076%
percentage of EdU-negative [2, 11]: 5.7 ± 0.21%

MAGPPRLLLLPLLLALARGLPGALAAQEVQQSPHCTTVPVGASVNITCSTSGGLRGIYLRQLGPQPQDIIYYEDGVVPTTDRRFRGRIDFSGSQDNLTITMHRLQLSDTGTYTCQAITEVNVYGSGTLVLVTEEQSQGWHRCSDAPPRASALPAPPTGSALPDPQTASALPDPPAASALPAALAVISFLLGLGLGVACVLARTQIKKLCSWRDKNSAACVVYEDMSHSRCNTLSSPNQYQ
percentage of EdU-negative [1, 5]: 25.1 ± 0.98%
percentage of EdU-negative ([1]; protein concentration 0.225 µM): 24.68 ± 0.088%
percentage of EdU-negative [2, 5]: 5.29 ± 0.21%
percentage of EdU-negative ([2]; protein concentration 0.225 µM): 4.88 ± 0.12%
